Among the data in the RNAGym collection of RNA variant scans (doi:10.7554/elife.80360) are self-cleavage values, retold here.

The chains are these.
B1: Twister Ribozyme (parent)
chain: AACACUGCCAAUGCCGGUCCCAAGCCCGGAUAAAAGUGGAGGGGGCGG

The variants in the series derive from B1. Put plainly: self-cleavage, relative activity (ratio to wild type); higher = more cleavage; co-transcriptional.
Regarding CACACUGCCAAUGCCGGUCCCAAGCCCGGAUAAAAGUGGAGUGGGCGG [A1C G42U], the self-cleavage was 0.169.
The figure for AACACUGCCAAUGCCGGUCCCAAGCCCGGACAAAAGUGGAGGGGACGG [U31C G45A] is 0.965.
The figure for AUGACUGCCAAUGCCGGUCCCAAGCCCGGAUAAAAGUGGAGGGGGCGG [A2U C3G] is 0.113; for AACACUGCCAAUGCCGGUCUCAAGCCCGGAUAAAAGUGGAGGGGGCUG [C20U G47U] it is 0.564; for AACACUGCCAAUGCCAGUCCAAAGCCCGGAUAAAAGUGGAGGGGGCGG [G16A C21A] it is 0.104.
The figure for AACACUGCCCAUGACGGUCCCAAGCCCGGAUAAAAGUGGAGGGGGCGG [A10C C14A] is 1.05; for AACACUGCCAACGCCGGUCCCAAGCCCGGAUAAAAAUGGAGGGGGCGG [U12C G36A] it is 0.679.
For the variant AACACUGCCAAUGCCGGUCCCAAGCCCGGAUAAAAGUAGAGCGGGCGG [G38A G42C], the self-cleavage came out at 0.247.
The figure for AACACUGCCAAUACCGGUCCCCAGCCCGGAUAAAAGUGGAGGGGGCGG [G13A A22C] is 1.05; for AACACUGAGAAUGCCGGUCCCAAGCCCGGAUAAAAGUGGAGGGGGCGG [C8A C9G] it is 0.122.
AACACUGCCAUUGCCGGUCCCAAGCCCGGAUAAAAGUGGAGGGGACGG [A11U G45A]: the self-cleavage came to 1.13.
The figure for AACACUGCCAAUGCAGUUCCCAAGCCCGGAUAAAAGUGGAGGGGGCGG [C15A G17U] is 0.0769; for AACACUGCCAAUGCCGGUCCCAAGCUCGGAUGAAAGUGGAGGGGGCGG [C26U A32G] it is 0.411; for AACACUGCCAAUGCCGGUCUCAAGCCCGGAUAAAAGUGGAGUGGGCGG [C20U G42U] it is 0.399.
ACCACUGCCAAUGCCGGUCCCAAGCCCGGAUAAAAGUGGAGGGCGCGG [A2C G44C]: the self-cleavage worked out at 0.035.
The figure for AACACUACCAAUGCCGGUCCCAAGCCCGGAUAAAAGUGGAGGGGCCGG [G7A G45C] is 0.139; for AACACUGCCAAUGCCGGUCCCAAGACCGGAAAAAAGUGGAGGGGGCGG [C25A U31A] it is 0.0924.
With AACACUGCCAAUGCCGGUCCCAAUCCCGGAUAAAAGUGGAGGGCGCGG [G24U G44C] the figure was 0.0809; with AACACUGCCAAUGCGGGUCCCAACCCCGGAUAAAAGUGGAGGGGGCGG [C15G G24C], 0.0723.
Take AACACUGCCAAUGCGGGUCCCAAACCCGGAUAAAAGUGGAGGGGGCGG [C15G G24A]: the self-cleavage amounted to 0.0815.
The figure for AAAACUGCCAAUGCCGGUCCCAAGCCCGGGUAAAAGUGGAGGGGGCGG [C3A A30G] is 0.202.
The figure for AACACUGCCAAUUCCGGUCCAAAGCCCGGAUAAAAGUGGAGGGGGCGG [G13U C21A] is 0.0794; for AACACUGCCAAUGCCGGUCCCAAGCCCGGAUAAAAGAGGAUGGGGCGG [U37A G41U] it is 0.115; for AACACUGCCAAAGCCGGUCCCAAGCCCGGAUAAAAGCGGAGGGGGCGG [U12A U37C] it is 0.727.
AACACUGCCAAUGCCGGGCCCAAGCCCGGAUAAUAGUGGAGGGGGCGG [U18G A34U]: the self-cleavage worked out at 0.0388.
With AACACUGCCAGUGCCGGUCCCAAGCCCGGAAAAAAGUGGAGGGGGCGG [A11G U31A] the figure was 0.348.
Take AACACUGCCAAUGACGGUCCCAAGCCCGGAUAAAAGUGGAGGGCGCGG [C14A G44C]: the self-cleavage worked out at 0.772.
Turning to AACACUGCCACUGCCGGUCCCAAGCCCGGAUUAAAGUGGAGGGGGCGG [A11C A32U], the self-cleavage turned out to be 0.831.
For the variant AACACUGCCAAUGCCGGUCCCAAGCCCGGAUAAAAGUGGAGGGGUUGG [G45U C46U], the self-cleavage turned out to be 0.669.
With AAUACUGCCAAUGCCGGUCCGAAGCCCGGAUAAAAGUGGAGGGGGCGG [C3U C21G] the figure was 0.221; with AACACUGUCAAUGCCGGUCCCAAGCCUGGAUAAAAGUGGAGGGGGCGG [C8U C27U], 0.288; with AAUACUGCCAAUGCCGGUACCAAGCCCGGAUAAAAGUGGAGGGGGCGG [C3U C19A], 0.0875.
The figure for AACACUGCCAAUGCCAGUCCCAAGCCCGGAUAAAAGUGGAGAGGGCGG [G16A G42A] is 0.358; for AACAAUGCCAAUGCCGGUCCCAAGCCCGGAUAAAACUGGAGGGGGCGG [C5A G36C] it is 0.519.
The figure for AACACUGCCAAUGCCGGUCCCAAGCGCGGAUAAAAGUGGAGGGUGCGG [C26G G44U] is 0.184; for AACACUGCCAAUGCCGGUCCCAAGCCCGUAUAAAAGUGGAGGGGGUGG [G29U C46U] it is 0.901.
Consider AAGACUGCCAAUGCCGGUCCCAAGCCCGGAUAAAAGUGGAGGCGGCGG [C3G G43C], for which the self-cleavage turned out to be 0.101.
With AACACUGCCAAUGGCGGUCCCAAGCCCGGAUAAAAGCGGAGGGGGCGG [C14G U37C] the figure was 0.0984.
With AACACCGCCAAUGCCGGUCCCAAGCCCGGAUAACAGUGGAGGGGGCGG [U6C A34C] the figure was 0.18; with AACACCGCCAAUGCCGGUCCCAAGCCCGGAUAAGAGUGGAGGGGGCGG [U6C A34G], 0.788.
As to AACACUGCCAAUGCCGGUGCCAAGCACGGAUAAAAGUGGAGGGGGCGG [C19G C26A], the self-cleavage is 0.0816.
With AACACUGCAAAUGCCGGUCACAAGCCCGGAUAAAAGUGGAGGGGGCGG [C9A C20A] the figure was 0.0653; with AACACUGACAAUGCCGGUCCCAAGCCCGGAUAAAAGUGGAGGGGGUGG [C8A C46U], 0.46; with AACACUGCCAAUGCCGGUCCCAAGCCCGGAUACAAGUGGAGGGGGUGG [A33C C46U], 0.961.
With AUCACUGCCAAUGCCGGUCCCAAGCCCGGAUAAAAGAGGAGGGGGCGG [A2U U37A] the figure was 0.202; with AACACUGCCAAUGCCGCUCCCAAGCCCGGAUAAAAGUGGAGGGGGCGU [G17C G48U], 0.163.
Take AACACUGCCAAUGCCGGUCCCAAGCCCGGAUAAAAGAGGAGGGCGCGG [U37A G44C]: the self-cleavage turned out to be 0.821.
Take ACCACAGCCAAUGCCGGUCCCAAGCCCGGAUAAAAGUGGAGGGGGCGG [A2C U6A]: the self-cleavage worked out at 0.0688.
With AACACUGCCACUGCCGGUCCCAAGCCCGGUUAAAAGUGGAGGGGGCGG [A11C A30U] the figure was 0.959; with AACACUGCCAAUGCCGAUCCCAAGCCCGGAUAAAAGUGGAGGGUGCGG [G17A G44U], 0.704; with AACACUGCCAAUGCCGGUCCCGAGCCCGGAUAAAAGUAGAGGGGGCGG [A22G G38A], 0.106.
Turning to AACACUGCCAAUGCCGGUUCCCAGCCCGGAUAAAAGUGGAGGGGGCGG [C19U A22C], the self-cleavage is 1.15.
Turning to AACACUGCCAAUGCCGGUCCCUAGCCCGGCUAAAAGUGGAGGGGGCGG [A22U A30C], the self-cleavage worked out at 0.614.
With AACACAGCCAAUGCCGGUCCAAAGCCCGGAUAAAAGUGGAGGGGGCGG [U6A C21A] the figure was 0.107.
